Paper PMC12280161, “Reconstitution of circadian clock in synthetic cells reveals principles of timekeeping” (Nature Communications, 2025)
Positions count from the first letter of the chain named. In names and notes the source's numbering stands. Values belong to the binder of their own block, whether it stands above or below them.

Target: T1, KaiC (FLAG-seKaiC-1-519) (Synechococcus elongatus, UniProt Q79PF4 1-519, initially hyperphosphorylated due to its preparation and storage at low temperatures (residues not given))
T1 construct: KaiC of Synechococcus elongatus, residues 1-519; In the model KaiC is assigned as hexamers; not measured here
T1 sequence (looked up): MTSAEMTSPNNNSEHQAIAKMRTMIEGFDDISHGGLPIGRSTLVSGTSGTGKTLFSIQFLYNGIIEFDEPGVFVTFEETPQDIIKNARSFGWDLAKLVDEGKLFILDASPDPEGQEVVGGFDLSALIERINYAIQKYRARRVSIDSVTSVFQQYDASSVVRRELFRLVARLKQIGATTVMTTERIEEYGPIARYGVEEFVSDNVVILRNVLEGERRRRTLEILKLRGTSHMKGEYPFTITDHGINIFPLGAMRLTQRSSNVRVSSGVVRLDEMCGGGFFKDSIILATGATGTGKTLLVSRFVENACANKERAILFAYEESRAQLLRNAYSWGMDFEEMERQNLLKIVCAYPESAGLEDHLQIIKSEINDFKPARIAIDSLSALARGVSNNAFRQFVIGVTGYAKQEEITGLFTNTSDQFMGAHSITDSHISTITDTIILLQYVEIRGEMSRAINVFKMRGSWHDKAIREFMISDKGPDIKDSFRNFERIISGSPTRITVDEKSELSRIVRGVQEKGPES
Assay: other fluorescence titration; fluorescence quenching of KaiB-6IAF: 25 µL of a 50:50 mixture of KaiB:KaiB-6IAF at 7 µM added to 25 µL of serially diluted KaiC in a black clear-bottom 96-well plate; mean intensity followed for 22 h; without KaiA
Details: both partners purified

binding result: binds
B1: KaiB-6IAF (seKaiB-1-102-K25C-FLAG labelled with 6-iodoacetamidofluorescein) (natural protein, Synechococcus elongatus, UniProt Q79PF5 1-102, looked up)
chain: MSPRKTYILKLYVAGNTPNSVRALCTLKNILEVEFQGVYALKVIDVLKNPQLAEEDKILATPTLAKVLPLPVRRIIGDLSDREKVLIGLDLLYGELQDSDDF
modifications: 6-(iodoacetamido)fluorescein (6IAF), thiol-reactive fluorophore, on KaiB-K25C
notes: KaiB of Synechococcus elongatus, residues 1-102, with K25C; In the model KaiB is assigned as tetramers; not measured here; also called fluorescent KaiB; fluorescently labeled KaiB

binding result: binds
B2: KaiB (seKaiB-1-102-FLAG) (natural protein, Synechococcus elongatus, UniProt Q79PF5 1-102, looked up)
chain: B1 chain with C25K
notes: KaiB of Synechococcus elongatus, residues 1-102; Present as half of the 50:50 KaiB:KaiB-6IAF mixture; gives no signal of its own; also called unlabelled KaiB
